Data published in patent US20170145086A1 (VISTERRA, published 2017).

Tests used:
pur. muAPRIL = biological target: T1, pur. muAPRIL (Mus musculus, UniProt Q9D777); assay: ELISA, purified APRIL control
T1 sequence (APRIL monomer, looked up): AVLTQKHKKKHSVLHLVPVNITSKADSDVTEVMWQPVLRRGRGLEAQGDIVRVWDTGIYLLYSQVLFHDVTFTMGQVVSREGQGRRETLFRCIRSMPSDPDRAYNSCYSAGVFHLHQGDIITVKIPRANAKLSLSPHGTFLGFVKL
Experimental: (§1) Antibody binding to human and mouse variants was assessed by ELISA. […] FLAG-tagged APRIL was captured from cell culture media using anti-FLAG antibody. The results are shown in FIGS. 23A-23B, 24A-24B, and 25A-25B. Differentiated epitope mapping of exemplary anti-APRIL antibodies was performed by site directed mutagenesis. Primary characterization of human APRIL binding site was carried out by site-directed mutagenesis of select amino acid positions within APRIL followed by evaluation of antibody binding to these variants by ELISA.

[1] = biological target: human TNFα (TNFSF2; Adipogen) (human, UniProt P01375 85-233, limits assumed); assay: indirect ELISA, cytokine coated
Chain of human TNFα (TNFSF2; Adipogen) (P01375 85-233 limits assumed): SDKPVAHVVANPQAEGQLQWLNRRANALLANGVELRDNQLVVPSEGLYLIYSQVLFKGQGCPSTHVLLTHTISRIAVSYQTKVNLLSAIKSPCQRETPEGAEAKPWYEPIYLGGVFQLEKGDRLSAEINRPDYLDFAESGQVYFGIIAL
Experimental: (§2) Selected anti-APRIL antibodies were evaluated for potential cross-reactivity with other members of the TNFa superfamily (TNFSF) family of cytokines, including: human TNFα (TNFSF2; Adipogen), human […] (TNFSF4, Adipogen), human FasL (TNFSF6, Adipogen), human TRAIL (TNFSF10, Adipogen), human RANKL (TNFSF11; Adipogen), human Tweak (TNFSF12; Abcam), human and mouse BAFF (TNFSF13B, AB Biosciences and Adipogen, respectively), and human LIGHT (TNFSF14, Adipogen). These cytokines share variable degree of sequence as well as higher order structural homologies. Among them, BAFF appears to be the most closely related to APRIL, with 29% identity and 53% amino acid sequence similarity.
(§3) Binding was evaluated by an indirect ELISA protocol using similar methods described for evaluation of APRIL binding; cytokines were immobilized to ELISA plate at 50 ng per well and then exposed to a solution of each of the test antibodies at a fixed concentration of 10 μg/ml Anti-human or anti-mouse Ig-HRP polyclonal antibody conjugates (Jackson Laboratories) were used for detection of antibody binding. The results presented in FIG. 36 indicated eleven of the twelve antibodies tested in this assay to specifically bind APRIL with no measurable cross-reactivity with the other TNFSF members substantially above assay background.

[2] = biological target: T2, human FasL (TNFSF6, Adipogen) (human, UniProt P48023 103-281, limits assumed); assay: indirect ELISA, cytokine coated
T2 sequence (looked up): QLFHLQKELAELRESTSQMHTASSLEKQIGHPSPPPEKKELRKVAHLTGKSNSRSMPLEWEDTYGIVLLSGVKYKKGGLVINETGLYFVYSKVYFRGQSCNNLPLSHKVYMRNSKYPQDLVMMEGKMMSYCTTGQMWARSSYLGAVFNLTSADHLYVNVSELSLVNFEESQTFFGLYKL
Experimental: as §2, §3

[3] = biological target: human TRAIL (TNFSF10, Adipogen) (human, UniProt P50591 95-281, limits assumed); assay: indirect ELISA, cytokine coated
Chain of human TRAIL (TNFSF10, Adipogen) (P50591 95-281 limits assumed): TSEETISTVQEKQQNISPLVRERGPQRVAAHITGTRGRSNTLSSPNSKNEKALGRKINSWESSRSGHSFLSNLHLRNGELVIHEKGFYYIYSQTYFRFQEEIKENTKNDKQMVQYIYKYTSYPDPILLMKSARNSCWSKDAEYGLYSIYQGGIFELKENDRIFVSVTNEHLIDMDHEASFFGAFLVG
Experimental: as §2, §3

[4] = biological target: T3, human RANKL (TNFSF11; Adipogen) (human, UniProt O14788 152-317, limits assumed); assay: indirect ELISA, cytokine coated
T3 sequence (looked up): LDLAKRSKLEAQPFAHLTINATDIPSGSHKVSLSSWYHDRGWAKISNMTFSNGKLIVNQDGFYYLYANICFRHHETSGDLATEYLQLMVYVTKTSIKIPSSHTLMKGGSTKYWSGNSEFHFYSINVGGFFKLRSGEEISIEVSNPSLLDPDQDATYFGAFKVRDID
Experimental: as §2, §3

[5] = biological target: T4, human Tweak (TNFSF12; Abcam) (human, UniProt O43508 94-249, limits assumed); assay: indirect ELISA, cytokine coated
T4 sequence (looked up): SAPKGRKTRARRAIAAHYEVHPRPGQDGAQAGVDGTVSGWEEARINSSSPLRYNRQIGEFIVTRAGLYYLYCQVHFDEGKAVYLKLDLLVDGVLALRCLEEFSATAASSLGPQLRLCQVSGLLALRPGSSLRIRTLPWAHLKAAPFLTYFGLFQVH
Experimental: as §2, §3

[6] = biological target: human BAFF (TNFSF13B, AB Biosciences) (human, UniProt Q9Y275 134-285, limits assumed); assay: indirect ELISA, cytokine coated
Chain of human BAFF (TNFSF13B, AB Biosciences) (Q9Y275 134-285 limits assumed): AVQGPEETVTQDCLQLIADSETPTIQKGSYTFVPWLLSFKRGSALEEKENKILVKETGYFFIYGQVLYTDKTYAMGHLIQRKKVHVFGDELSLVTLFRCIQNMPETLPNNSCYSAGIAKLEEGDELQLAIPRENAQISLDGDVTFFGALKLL
Experimental: as §2, §3

[7] = biological target: mouse BAFF (TNFSF13B, Adipogen) (mouse, UniProt Q9WU72 127-309, limits assumed); assay: indirect ELISA, cytokine coated
Chain of mouse BAFF (TNFSF13B, Adipogen) (Q9WU72 127-309 limits assumed): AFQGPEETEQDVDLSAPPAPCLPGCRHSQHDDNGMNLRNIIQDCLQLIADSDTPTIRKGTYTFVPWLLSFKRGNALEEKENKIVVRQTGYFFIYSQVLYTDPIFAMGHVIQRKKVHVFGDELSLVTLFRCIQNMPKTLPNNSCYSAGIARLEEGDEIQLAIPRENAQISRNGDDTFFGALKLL
Experimental: as §2, §3

[8] = biological target: human LIGHT (TNFSF14, Adipogen) (human, UniProt O43557 89-240, limits assumed); assay: indirect ELISA, cytokine coated
Chain of human LIGHT (TNFSF14, Adipogen) (O43557 89-240 limits assumed): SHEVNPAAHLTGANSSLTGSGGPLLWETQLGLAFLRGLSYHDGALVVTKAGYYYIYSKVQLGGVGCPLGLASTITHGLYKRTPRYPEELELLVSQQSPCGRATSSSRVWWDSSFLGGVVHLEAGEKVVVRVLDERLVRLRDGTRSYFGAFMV
Experimental: as §2, §3

[9] = biological target: T5, FLAG-tagged mouse APRIL (WT muAPRIL and muAPRIL Mutants) (Mus musculus, UniProt Q9D777); assay: ELISA, FLAG-APRIL captured with anti-FLAG antibody
T5 sequence (APRIL monomer, looked up): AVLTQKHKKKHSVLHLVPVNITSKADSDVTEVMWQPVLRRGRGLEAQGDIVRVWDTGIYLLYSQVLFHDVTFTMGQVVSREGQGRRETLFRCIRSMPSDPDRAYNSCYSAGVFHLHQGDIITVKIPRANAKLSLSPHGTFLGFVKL
Experimental: as §1

[10] = biological target: T6, human APRIL variant V181E (Homo sapiens, UniProt O75888); assay: ELISA on the human APRIL variant V181E [panel V181E]
T6 construct: one of the variants grouped under m24
T6 sequence (APRIL monomer, looked up): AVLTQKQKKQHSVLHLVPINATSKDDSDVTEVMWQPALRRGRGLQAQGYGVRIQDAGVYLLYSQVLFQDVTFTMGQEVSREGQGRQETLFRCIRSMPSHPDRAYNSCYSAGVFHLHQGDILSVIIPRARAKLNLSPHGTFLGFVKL
Experimental: as §1

[11] = biological target: T7, HA-GCN4 hAPRIL (amino acid residues 105-250) (human, UniProt O75888 105-250); assay: cell-based or functional assay
T7 sequence: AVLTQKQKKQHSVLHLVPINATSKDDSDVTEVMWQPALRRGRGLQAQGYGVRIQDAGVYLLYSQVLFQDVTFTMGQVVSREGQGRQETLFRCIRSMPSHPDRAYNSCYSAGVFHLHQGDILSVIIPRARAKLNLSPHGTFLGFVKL

[12] = biological target: T7, HA-GCN4 hAPRIL (amino acid residues …); assay: blocking ELISA; blocked: human APRIL binding to BCMA-Fc
Experimental: Recombinant TACI-Fc or BCMA-Fc was coated on 96 well plates in 0.1 M carbonate-bicarbonate buffer (pH 9.6), overnight at 4° C. Plates were washed three times with 1×PBST (PBS+0.025% Tween 20) followed by blocking with 1% BSA in 1×PBS, 37° C. for 1 hour. All subsequent wash steps were carried out with 1×PBST. To assess antibody blocking, either 15 ng/mL or 50 ng/mL HA-GCN4-huAPRIL was preincubated with varying antibody concentrations ranging from 0.03-30 μg/mL in binding buffer comprised of 1% BSA and 0.025% Tween-20 in 1×PBS. Preincubation was carried out at 30° C. for 1 hour with mixing. Antibody-APRIL premix with 50 ng/mL APRIL or 15 ng/mL APRIL was then added to TACI-Fc coated or BCMA-Fc coated plates, respectively, and incubated for an additional hour at 30° C. HA-tagged APRIL binding to either receptor was quantified using a goat polyclonal anti-HA tag-HRP antibody (Abcam) added at a 1:10000 dilution followed by colorimetric development using 100 μl/well of freshly prepared TMB substrate (KPL) carried out for up to 30 minutes at room temperature before quenching enzymatic reaction by the addition of 1N sulfuric acid. ELISA signal was quantified by absorbance at 450 nm. ELISA data was analyzed by non-linear regression. IC₅₀ values were calculated based on a 4 parameter fit of antibody titration curves. […] Non-blocking antibodies Aprly-1 or Aprly-5 (Enzo Biosciences) were used as negative controls. Mouse specific, blocking antibody aprily-1-1 (Adipogen) was generally used as a positive control in experiments using mouse APRIL (HA-GCN4-mAPRIL).
Assay is based on receptor blocking ELISA using recombinant human APRIL (R&D Systems) and either human TACI-Fc (FIG. 30A) or BCMA-Fc (FIG. 30B).

[13] = biological target: T7, HA-GCN4 hAPRIL (amino acid residues …); assay: blocking ELISA; blocked: human APRIL binding to TACI-Fc
[14] = biological target: T7, HA-GCN4 hAPRIL (amino acid residues …); assay: indirect ELISA on human APRIL; row printed 4504-063, legend paragraph 738 says 4540-063
[15] = biological target: T8, HA-GCN4 mAPRIL (amino acid residues 96-241) (mouse, UniProt Q9D777 96-241, Assembles as a homotrimer through the GCN4 zipper; one protomer is given.); assay: indirect ELISA on mouse APRIL; row printed 4504-063, legend paragraph 738 says 4540-063
T8 construct: Bought (R&D Systems); also called HA-tagged mouse APRIL (R&D Systems); recombinant mouse APRIL; not shown: N-terminal HA tag and GCN4 isoleucine-zipper trimerisation domain, with any linker, of the bought R&D Systems protein
T8 sequence: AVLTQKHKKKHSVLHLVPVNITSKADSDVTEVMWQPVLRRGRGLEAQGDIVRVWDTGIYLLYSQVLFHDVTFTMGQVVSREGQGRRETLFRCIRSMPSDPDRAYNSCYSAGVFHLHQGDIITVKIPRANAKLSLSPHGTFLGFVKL

| Binder | binding result (pur. muAPRIL) | binding result [1] | binding result [2] | binding result [3] | binding result [4] | binding result [5] | binding result [6] | binding result [7] | binding result [8] | binding result [9] | binding result [10] | IC50 (inhibition of APRIL-mediated BCMA NFκB signaling) [11] [nM] | IC50 (inhibition of APRIL-mediated TACI NFκB signaling) [11] [nM] | IC50 [12] [nM] | Relative Activity (normalised to 2419) [12] | IC50 [13] [nM] | Relative Activity (normalised to 2419) [13] | EC50 [14] [nM] | EC50 [15] [nM] |
| --- | --- | --- | --- | --- | --- | --- | --- | --- | --- | --- | --- | --- | --- | --- | --- | --- | --- | --- | --- |
| monoclonal antibody 4035 (antibody, V domains shown, mouse-derived) VH: QVQLKESGPGLVAPSQSLSITCTVSGFSLTIYDVHWVRQSPGKGLEWLGVIWSDGSTDYNAAFISRLSISKDNSKSQVFFKMNSLQADDTAIYYCARNWVDQAWFAYWGQGTLVTVSA VL: DIQMTQSPASLSASVGETITITCRASKNIYSYLAWYQQKQGKSPQLLVYNAKTLPEGVPSRFSGSGSGTQFSLKINSLQPEDFGSYYCQHHYGTPLTFGAGTKLELK | no binding | no binding (tested: 10 µg/ml (p-1128)) | no binding (tested: 10 µg/ml (p-1128)) | no binding (tested: 10 µg/ml (p-1128)) | no binding (tested: 10 µg/ml (p-1128)) | no binding (tested: 10 µg/ml (p-1128)) | no binding (tested: 10 µg/ml (p-1128)) | no binding (tested: 10 µg/ml (p-1128)) | no binding (tested: 10 µg/ml (p-1128)) | no binding | – | – | – | – | – | – | – | – | – |
| monoclonal antibody 2419 (antibody, V domains shown) VH: QVQLQQSGAELVKPGASVRLSCEASGYTFTDYTIHWVKQRSGQGLEWIGWIYPLRGSINYNEKFKDKATLTADKSSSTVYLELGRLTSKDSAVYFCARHGAYYSNAFDYWGQGTTLTVSS VL: NIVMTQSPASLAVSLGQRATISCRASESVDNDGIRFMHWYQQKPGQPPKLLIYRASNLESGIPARFSGSGSRTDFTLTINPVETDDVATYYCQQSNKDPYTFGGGTKLELK | – | no binding (tested: 10 µg/ml (p-1128)) | no binding (tested: 10 µg/ml (p-1128)) | no binding (tested: 10 µg/ml (p-1128)) | no binding (tested: 10 µg/ml (p-1128)) | no binding (tested: 10 µg/ml (p-1128)) | no binding (tested: 10 µg/ml (p-1128)) | no binding (tested: 10 µg/ml (p-1128)) | no binding (tested: 10 µg/ml (p-1128)) | – | binds | – | – | – | – | – | – | – | – |
| monoclonal antibody 4540-063 (antibody, IgG1, V domains shown) VH: QVQLVQSGAELKKPGASVKVSCKASGYTFADYYMNWVRQAPGQGLEWMGWIFPGSGSTYYNQKFQGRVTMTVDKSSSTAYMELSRLRSDDTAVYYCARGDSGRAMDYWGQGTLVTVSS VL: DIQMTQSPSSLSASVGDRVTITCQASQDINKYLAWYQHKPGKAPKLLIHYTSTLETGVPSRFSGSGSGTDFTFTISSLQPEDIATYYCLQYDNLLTFGGGTKVEIK | – | – | – | – | – | – | – | – | – | – | – | ~1.04 | ~7.19 | 1.92 | 8.11 | 0.67 | 2.43 | 0.00206 | 0.00156 |
